Results from patent publication US20240392003A1 (NUMAB THERAPEUTICS, published 2024).
Where two headings read alike, the source gives them in different places.

Columns and labels:
[1] = target: T1, human ROR1 expressed on cells (human, UniProt Q01973 30-937); test: cell-based or functional assay
[2] = target: T1, human ROR1 expressed on cells; test: cell-based or functional assay; remark: listed apart in the source
[3] = target: T2, recombinant human CD3 epsilon extra-cellular domain protein (His-Tag, SinoBiological) (human, UniProt P07766 23-126); test: SPR; hCD3ε immobilized, two-state fit (ka1)
T2 construct: extracellular domain; Bought; also called hCD3ε; human CD3ε; not shown: His tag

[4] = target: T2, recombinant human CD3 epsilon …; test: SPR; hCD3ε immobilized, two-state fit;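 also: biacore T200 measurement with target covalently coupled to a CM5 chip, antibody constructs injected as analyte over a concentration series, constants derived in Biacore Evaluation software 3.2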
[5] = target: T1, human ROR1 expressed on cells; test: cell-based or functional assay; remark: listed apart in the source
[6] = target: T3, recombinant human ROR1 protein (Fc-Tag, Acro Biosystems RO1-H5250) (human, UniProt Q01973 30-406); test: SPR; hROR1-Fc immobilized;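 also: biacore T200 SPR with ROR1 covalently coupled to a CM5 chip, analyte titration series, apparent rate and equilibrium constants fitted with a 1:1 Langmuir model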
T3 construct: Bought; also called hROR1; recombinant human ROR1 ECD; not shown: Fc tag

[7] = target: T2, recombinant human CD3 epsilon …; test: SPR; hCD3ε immobilized, two-state fit (kd1)
Experimental: Binding kinetics (including affinity) of the nine selected scMATCH3 molecules to recombinant human CD3 epsilon extra-cellular domain protein (hCD3ε; His-Tag, SinoBiological) were determined by SPR analysis on a T200 device (Biacore, Cytiva). Recombinant hCD3ε molecules were covalently immobilized to a carboxymethylated dextran surface (CM5 sensorchip; Biacore, Cytiva) and a titration series of each MATCH3 molecule was injected as analyte. After each analyte injection-cycle, every flow channel on the sensor chip was regenerated (Glycine, pH 2.0 and 3 M MgCl₂), and a new concentration of MATCH3 molecule was injected. […] The apparent dissociation (kₐ₁) and association (kₐ₁) rate constants, the second reaction constants (kₐ₂ and kd) and the apparent dissociation equilibrium constant (KD) were calculated with the Biacore analysis software (Biacore Evaluation software Version 3.2, Cytiva) using a two-state binding model, and quality of the fits was monitored based on relative Chi2. The binding level was calculated as the maximum stability binding achieved normalized to the theoretical Rmax.

[8] = target: T1, human ROR1 expressed on cells; test: flow cytometry, MDA-MB-231 cells, 1 mg/ml hSA
Experimental: After incubation at 4° C. for 1 h in presence of 1 mg/mi of human serum albumin (hSA), plates were washed and incubated with specific detection antibodies.
The binding of anti-ROR1xhSAxCD3 scMATCH3 molecules to plasma membrane human ROR1 was assessed by flow cytometry.

[9] = target: T1, human ROR1 expressed on cells; test: cell-based or functional assay; remark: listed apart in the source

Row | Binder | Avg. % max. CD4 T cell act. (JIMT-1) [1] [%] | Avg. % max. CD4 T cell act. (MDA-MB-231) [1] [%] | Avg. % max. CD4 T cell act. (SKOV3) [1] [%] | Avg. EC50 (nM) CD4 T cell act. (JIMT-1) [1] [nM] | Avg. EC50 (nM) CD4 T cell act. (MDA-MB-231) [1] [nM] | Avg. EC50 (nM) CD4 T cell act. (SKOV3) [1] [nM] | Avg. % max. CD8 T cell act. (JIMT-1) [2] [%] | Avg. % max. CD8 T cell act. (MDA-MB-231) [2] [%] | Avg. % max. CD8 T cell act. (SKOV3) [2] [%] | kon [3] [M⁻¹ s⁻¹] | Kd [4] [nM] | ka2 [4] [s⁻¹] | kd2 [4] [s⁻¹] | Kd [6] [nM] | koff [6] [s⁻¹] | kon [6] [M⁻¹ s⁻¹] | koff [7] [s⁻¹] | EC50 [8] [nM] | Rel. maximum binding (MFIscMATCH3/MFIPRO2213) [8] | EC50 (nM) Cytotoxicity (MDA-MB-231) [9] [nM] | further results
1 | PRO2507 (bispecific antibody, trispecific anti-ROR1 x hSA x CD3 scMATCH3, single chain; also called 19-04-A10-sc06 scDb-o/28-21-D09-sc04 scDb-i/55-38-D07-sc02-scFv) AFELTQSPSSLSASVGDRVTITCQASESINSRLAWYQQKPGQPPKLLIYDASDLTSGVPSRFSGSGSGTDFTLTISSLQPEDFATYYCQGYGGSSTTTFGCGTKLTVLGGGGGSEVQLVESGGGLVQPGGSLRLSCAASGFSLSSYDMSWVRQAPGKGLAWIGASYASGPTYYASWAKGRFTISRDNSKNTVYLQMNSLRAEDTATYFCARGGWTGTSHSNIWGQGTLVTVSSGGGGSGGGGSGGGGSGGGGSDIQMTQSPSSLSASVGDRVTITCQSSQSVFSNNYLAWFQQKPGQSPKRLIYSASTLASGVPSRFSGSGSGTDFTLTISSLQPEDFATYYCLGSYACSSADCYVFGTGTKVTVLGGGGGSEVQLVESGGGLVQPGGSLRLSCAASGFSLSSYAMNWVRQAPGKCLEWIGHINAGDIAYYATWAKGRFTISRDNSKNTVYLQMNSLRAEDTAVYFCARGAGGFSTGPFKLWGQGTLVTVSSGGGGSGGGGSDVQMTQSPSSLSASVGDRVTITCRASENIYSGLAWYQQKPGKPPKLLIYRASTLASGVSSRFSGSGSGTDFTLTISSLQPEDFATYYCQGGYYSSSSTYIAFGTGTKVTVLGGGGGSGGGGSGGGGSGGGGSQSQVVESGGGLVQPGGSLRLSCAVSGFDLSSYAVSWVRQAPGKGLEWIGIIYPRANTYYASWAKGRFTISKDNSKNTVYLQMNSLRAEDTAVYFCARDRYDSGAYLYTTYFNLWGQGTLVTVSS | 63.2 | 81.8 | 83.3 | 2.4 | 0.14 | 0.22 | 40.8 | 68 | 64.3 | 340000 | 9.4 | 0.0069 | 0.0078 | < 0.12 | < 1e-05 | 82000 | 0.006 | 26.9 | 2.88 | 1 | Avg. EC50 (nM) CD8 T cell act. (JIMT-1) [2]: 2.9 nM; Avg. EC50 (nM) CD8 T cell act. (MDA-MB-231) [2]: 0.36 nM; Avg. EC50 (nM) CD8 T cell act. (SKOV3) [2]: 0.34 nM; Avg. % max. lysis (JIMT-1) [5]: 63.9%; Avg. % max. lysis (MDA-MB-231) [5]: 64.6%; Avg. % max. lysis (SKOV3) [5]: 79.1%; Avg. EC50 (nM) CD8 T cell act. (MDA-MB-231) [5]: 0.36 nM; Avg. EC50 (nM) CD8 T cell act. (SKOV3) [5]: 0.34 nM; Avg. EC50 (nM) Cytotoxicity (JIMT-1) [5]: 2 nM; Avg. EC50 (nM) Cytotoxicity (MDA-MB-231) [5]: 0.47 nM; Avg. EC50 (nM) Cytotoxicity (SKOV3) [5]: 0.42 nM
2 | PRO2510 (bispecific antibody, trispecific anti-ROR1 x hSA x CD3 scMATCH3, single chain; also called 19-04-A10-sc06 scDb-o/28-21-D09-sc04 scDb-i/55-39-G02-sc05-scFv) AFELTQSPSSLSASVGDRVTITCQASESINSRLAWYQQKPGQPPKLLIYDASDLTSGVPSRFSGSGSGTDFTLTISSLQPEDFATYYCQGYGGSSTTTFGCGTKLTVLGGGGGSEVQLVESGGGLVQPGGSLRLSCAASGFSLSSYDMSWVRQAPGKGLAWIGASYASGPTYYASWAKGRFTISRDNSKNTVYLQMNSLRAEDTATYFCARGGWTGTSHSNIWGQGTLVTVSSGGGGSGGGGSGGGGSGGGGSDIQMTQSPSSLSASVGDRVTITCQSSQSVFSNNYLAWFQQKPGQSPKRLIYSASTLASGVPSRFSGSGSGTDFTLTISSLQPEDFATYYCLGSYACSSADCYVFGTGTKVTVLGGGGGSEVQLVESGGGLVQPGGSLRLSCAASGFSLSSYAMNWVRQAPGKCLEWIGHINAGDIAYYATWAKGRFTISRDNSKNTVYLQMNSLRAEDTAVYFCARGAGGFSTGPFKLWGQGTLVTVSSGGGGSGGGGSAQQLTQSPSSLSASVGDRVTITCQASQNVWNNNYLSWFQQKPGKPPKLLIVTASTLASGVSSRFSGSGSGTDFTLTISSLQPEDFATYYCAGGFSGEIRAFGCGTKVTVLGGGGGSGGGGSGGGGSGGGGSQSQLVESGGGLVQPGGSLRLSCAVSGLSLSRNAMSWVRQAPGKCLEWIGIILTSGSTYYASWAKGRFTISKDNSKNTVYLQMNSLRAEDTAVYFCVRGIASSSLKSFWGQGTLVTVSS | 68 | 82 | 87.3 | 0.8 | 0.036 | 0.13 | 47.6 | 70.4 | 79.3 | 1e+06 | 2.1 | 0.0013 | 0.002 | 0.46 | 0.0006 | 1.3e+06 | 0.0036 | 1.36 | 2.61 | 0.43 | Avg. EC50 (nM) CD8 T cell act. (JIMT-1) [2]: 1.1 nM; Avg. EC50 (nM) CD8 T cell act. (MDA-MB-231) [2]: 0.087 nM; Avg. EC50 (nM) CD8 T cell act. (SKOV3) [2]: 0.19 nM; Avg. % max. lysis (JIMT-1) [5]: 72.1%; Avg. % max. lysis (MDA-MB-231) [5]: 65.5%; Avg. % max. lysis (SKOV3) [5]: 83.1%; Avg. EC50 (nM) CD8 T cell act. (MDA-MB-231) [5]: 0.087 nM; Avg. EC50 (nM) CD8 T cell act. (SKOV3) [5]: 0.19 nM; Avg. EC50 (nM) Cytotoxicity (JIMT-1) [5]: 1.1 nM; Avg. EC50 (nM) Cytotoxicity (MDA-MB-231) [5]: 0.14 nM; Avg. EC50 (nM) Cytotoxicity (SKOV3) [5]: 0.25 nM

Further lines, with some results ahead:

Row | Avg. % max. CD4 T cell act. (JIMT-1) [1] [%] | Avg. % max. CD4 T cell act. (MDA-MB-231) [1] [%] | Avg. % max. CD4 T cell act. (SKOV3) [1] [%] | Avg. EC50 (nM) CD4 T cell act. (JIMT-1) [1] [nM] | Avg. EC50 (nM) CD4 T cell act. (MDA-MB-231) [1] [nM] | Avg. EC50 (nM) CD4 T cell act. (SKOV3) [1] [nM] | Avg. % max. CD8 T cell act. (JIMT-1) [2] [%] | Avg. % max. CD8 T cell act. (MDA-MB-231) [2] [%] | Avg. % max. CD8 T cell act. (SKOV3) [2] [%] | kon [3] [M⁻¹ s⁻¹] | Kd [4] [nM] | ka2 [4] [s⁻¹] | kd2 [4] [s⁻¹] | Kd [6] [nM] | koff [6] [s⁻¹] | kon [6] [M⁻¹ s⁻¹] | koff [7] [s⁻¹] | EC50 [8] [nM] | Rel. maximum binding (MFIscMATCH3/MFIPRO2213) [8] | Binder | EC50 (nM) Cytotoxicity (MDA-MB-231) [9] [nM] | further results
3 |  |  |  |  |  |  |  |  |  | 1e+06 | 2.1 | 0.00096 | 0.0016 | 0.36 | 0.00047 | 1.3e+06 | 0.0034 | 1.12 | 2.57 | PRO2509 (bispecific antibody, trispecific anti-ROR1 x hSA x CD3 scMATCH3, single chain; also called 19-04-A10-sc06 scDb-o/28-21-D09-sc04 scDb-i/55-39-G02-sc02-scFv) AFELTQSPSSLSASVGDRVTITCQASESINSRLAWYQQKPGQPPKLLIYDASDLTSGVPSRFSGSGSGTDFTLTISSLQPEDFATYYCQGYGGSSTTTFGCGTKLTVLGGGGGSEVQLVESGGGLVQPGGSLRLSCAASGFSLSSYDMSWVRQAPGKGLAWIGASYASGPTYYASWAKGRFTISRDNSKNTVYLQMNSLRAEDTATYFCARGGWTGTSHSNIWGQGTLVTVSSGGGGSGGGGSGGGGSGGGGSDIQMTQSPSSLSASVGDRVTITCQSSQSVFSNNYLAWFQQKPGQSPKRLIYSASTLASGVPSRFSGSGSGTDFTLTISSLQPEDFATYYCLGSYACSSADCYVFGTGTKVTVLGGGGGSEVQLVESGGGLVQPGGSLRLSCAASGFSLSSYAMNWVRQAPGKCLEWIGHINAGDIAYYATWAKGRFTISRDNSKNTVYLQMNSLRAEDTAVYFCARGAGGFSTGPFKLWGQGTLVTVSSGGGGSGGGGSAQQLTQSPSSLSASVGDRVTITCQASQNVWNNNYLSWFQQKPGKPPKLLIVTASTLASGVSSRFSGSGSGTDFTLTISSLQPEDFATYYCAGGFSGEIRAFGTGTKVTVLGGGGGSGGGGSGGGGSGGGGSQSQLVESGGGLVQPGGSLRLSCAVSGLSLSRNAMSWVRQAPGKGLEWIGIILTSGSTYYASWAKGRFTISKDNSKNTVYLQMNSLRAEDTAVYFCVRGIASSSLKSFWGQGTLVTVSS | 0.31 | 
4 | 69.3 | 77.7 | 87.5 | 3.3 | 0.2 | 0.55 | 48.7 | 65.3 | 81.5 | 430000 | 5.5 | 0.00042 | 0.0014 | 1.6 | 0.00067 | 420000 | 0.0031 | 3.27 | 2.43 | PRO2557 (bispecific antibody, trispecific anti-ROR1 x hSA x CD3 scMATCH3, single chain; also called 19-04-A10-sc06 scDb-o/28-21-D09-sc04 scDb-i/55-39-G02-sc06-scFv) AFELTQSPSSLSASVGDRVTITCQASESINSRLAWYQQKPGQPPKLLIYDASDLTSGVPSRFSGSGSGTDFTLTISSLQPEDFATYYCQGYGGSSTTTFGCGTKLTVLGGGGGSEVQLVESGGGLVQPGGSLRLSCAASGFSLSSYDMSWVRQAPGKGLAWIGASYASGPTYYASWAKGRFTISRDNSKNTVYLQMNSLRAEDTATYFCARGGWTGTSHSNIWGQGTLVTVSSGGGGSGGGGSGGGGSGGGGSDIQMTQSPSSLSASVGDRVTITCQSSQSVFSNNYLAWFQQKPGQSPKRLIYSASTLASGVPSRFSGSGSGTDFTLTISSLQPEDFATYYCLGSYACSSADCYVFGTGTKVTVLGGGGGSEVQLVESGGGLVQPGGSLRLSCAASGFSLSSYAMNWVRQAPGKCLEWIGHINAGDIAYYATWAKGRFTISRDNSKNTVYLQMNSLRAEDTAVYFCARGAGGFSTGPFKLWGQGTLVTVSSGGGGSGGGGSAQQLTQSPSSLSASVGDRVTITCQASQNVWNNNYLSWFQQKPGKPPKLLIVTASTLASGVSSRFSGSGSGTDFTLTISSLQPEDFATYYCAGGFSGEIRAFGCGTKVTVLGGGGGSGGGGSGGGGSGGGGSQSQLVESGGGLVQPGGSLRLSCAVSGIDLSRNAMSWVRQAPGKCLEWIGIILTSGSTYYASWAKGRFTISKTSTTLDLQMNSLRAEDTAVYFCVRGIASSSLKSFWGQGTLVTVSS | 3.1 | Avg. EC50 (nM) CD8 T cell act. (JIMT-1) [2]: 5.4 nM; Avg. EC50 (nM) CD8 T cell act. (MDA-MB-231) [2]: 0.52 nM; Avg. EC50 (nM) CD8 T cell act. (SKOV3) [2]: 1.2 nM; Avg. % max. lysis (JIMT-1) [5]: 83%; Avg. % max. lysis (MDA-MB-231) [5]: 78.2%; Avg. % max. lysis (SKOV3) [5]: 88%; Avg. EC50 (nM) CD8 T cell act. (MDA-MB-231) [5]: 0.52 nM; Avg. EC50 (nM) CD8 T cell act. (SKOV3) [5]: 1.2 nM; Avg. EC50 (nM) Cytotoxicity (JIMT-1) [5]: 3.4 nM; Avg. EC50 (nM) Cytotoxicity (MDA-MB-231) [5]: 0.74 nM; Avg. EC50 (nM) Cytotoxicity (SKOV3) [5]: 1.3 nM
